Source: a protein production outcome set (Wang et al. 2014)

Test: label from the status in PepcDB records

Sequence	protein production
MSGPTWLPPKQPEPSRVPQGRALPRGTLGPPTAHGATLQPHPRVNFCPLPPEQCYQPPGVPEDRGPTWVGSHGAAQRLQGLPPDRGVIHPGSLDAEIDSLTSMLADLDGSRSHAPRRPDRQAFEAPPPHAYRGGSLKPSGGAVPAPMLPASPYGGPTPASYATASTPAGPAFPVQVKVAQPVRGCGLPRRGASQASGPLPGPHFPLTGRGEVWGAGYRSHREPGPGVKEGAAGVHNPAGGGRRGGHEPQGPLSQPPEEELERLTKKLVHDMNHPPSGEYFGRCGGCGDDVVGDGAGVVALDRVFHTGCFVCSTCRAQLRGQHFYAVERRAYCESCYVATLEKCSTCSEPILDRILRAMGKAYHPGCFTCVVCHRGLDGIPFTVDATSQIHCIEDFHRKFAPRCSVCGGAIMPEPGQEETVRIVALDRSFHIGCYKCEECGLLLSSEGECQGCYPLDGHILCKACSAWRIQELSATVTTDC	failed
MSGQHGHDHSHAVVTQGNAKKLTIALSLTVTFLIVEVVAGFITQSLALLSDAAHMFTDAAALAIALAAIQVAKRPADDKRTFGYQRFEILAALFNASMLFMVAIYILYEAYQRFTHPPEIQSLGMLLVAVIGLIINLISMKILVSSAQDSLNVKGAYLEVLSDALGSVGVILGALVIYFTQWYWVDTLVAVLIGFWVLPRTWILLKQSINILLEGVPEEVDIEKLRDDLLALEGVESIHQLKVWAITSKNVHLTVHLFAPQADRNRLYRTAYEMLSHEHGIAEITLQIEEDECLAHSHTHIEKNHQH	failed
MSGREFLQKLLDGERVEWKALGEIIQLEKGRQLNKDLLSSSGRYPAYNGGMSYSGFTDSYNYSENKTIISQGGASAGFVNFVTTKFYANAHCYVVLPDTEVVDNRYIYHFLKLNEERLTSCQHGAGIPALRASEITSLKIPIPCPDNPKKSLAIQAEIVRILDAFTELTAELTAELTARKKQYAYYRDRLLTFTTPPYGHPSKGGELFSLFGHPSEGGELFTPYGHSVEERELNSPSLKGWQAQPDGVVPVEWKTLGEVGHFIRGSGIQKSDFKASGVGCIHYGQIHTHYGTWTTETKSFIDPEFANRLKKAKPGDLVIATTSEDDDAVAKAVAWIGTEDVAVSTDAYIFRHTANPKYMSYFFQTDMFQEQKKPYITGTKVRRISGDNLAKILIPIPPLAEQERIVAILDQFDALTNSLTEGLPREIELRQKQYAYYRDLLFSFPKASFGGVPEGRDQFPSFGGVPEGRGGLNALEHHHHHH	failed
MSGSAADPPSPDRLAGVFSVSSVRRTDGTVQYLGNPLVPPDAVAEQLRPVFRQRGYDVRLEELGPESATGTTVTSNGETTVVDDPGANDSIAPGGAVNTRPGQYALVAEPVGTDTGGVPWLNIGLLLATIASTLYVGASAWYYIPVAKNPLRVFEAWPFMVAMLGVLGIHELGHYAAARYHGVDVTLPYFIPFPSYLGTMGAVINIRGRIPDRTALFDIGVAGPLAGLVATTIVTVIGLSIDPITVPERVANSDTGVIITFNYPLLFQALEALVNALGLGTEVGPGESVHPIVFAGWAGMFFTFLNLLPVGQLDGGHIVRSIVGRRQETIAAAVPGALFALAGYLYFTRDPPPVGFGVWGLWVFWGLFATGLAYAGPARPTVDTALDRRRALLGLFTFLLGIACFTPVPFEISAV	failed
MSGSPGIESVPGPELPKIEFLDRFNAKNQKFYAENDARFKDSPLLKKLLENSKLNKEKNEREIQDKYCLRGAEWGVGDCSTTGMTDEEKEKFITMLKKKTGVE	failed
MSGVKIAFIRHHDLWIKVDGKEKQLTKGEYITGPKWSYDGEWLAYVKGEKQNTLELYRLKDGKKVTPFHSEVSNYQWSPTENIIAFIFTGTLHTFKVEKKNADFENVSAGVGDYAWYPNGKKFLVSSEAHLLPTGWTGAQLYEVQKDAHMNPHKMKHLYALPNEHDDFLALVASGFQWSPDQKWISFLAVPTASWSADSNTLCLVRADGSRFEKVDQMLLNTQWFKWAPANNILAYIEGSGRVALENKHLKVKELPALQQNTFTPKGYVDWDFTWKNDNVIIVSRAKEAGIETPPEKRPLPSLYEIDSTSDEQHRITKPPHRQGDYHPLFMNKSNQLIWIRSDRKKADVWLAHKDGKHEMKWIENIDVPLEHHHHHH	failed
MSHLYDPTTQYYTGEYPKQKQPAPGVQAKMTPVPDCGEKSYVGSGRLKDRKALVTGGDSGIGRAAAIAYAREGADVAINYLPAEEEDAQQVKALIEECGRKAVLLPGDLSDESFARSLVHKAREALGGLDILALVAGKQTAIPEIKDLTSEQFQQTFAVNVFALFWITQEAIPLLPKGASIITTSSIQAYQPSPHLLDYAATKAAILNYSRGLAKQVAEKGIRVNIVAPGPIWTALQISGGQTQDKIPQFGQQTPMKRAGQPAELAPVYVYLASQESSYVTAEVHGVCGGEHLG	not failed
MSHSIEQLSINTIRTLSIDAIEKANSGHPGMPMGAAPMAYTLWTQFMKHNPNNPTWFNRDRFVLSAGHGSMLLYSLLHLSGYDVTMDDLKNFRQWGSKTPGHPEYGHTAGVDATTGPLGQGIATAVGMAMAERHLAAKYNRDAYNIVDHYTYAICGDGDLMEGVSAEASSLAAHLQLGRLVVLYDSNDISLDGDLNRSFSESVEDRYKAYGWQVIRVEDGNDIEAIAKAIEEAKADEKRPTLIEVRTTIGFGSPNKSGKSASHGSPLGVEETKLTKEAYAWTAEQDFHVAEEVYENFRKTVQDVGETAQAEWNTMLGEYAQAYPELANELQAAMNGLLPEGWEQNLPTYELGSKAATRNSSGAVINAIAESVPSFFGGSADLAGSNKTYMNNEKDFTRDDYSGKNIWYGVREFAMGAAMNGIALHGGLKTYGGTFFVFSDYLRPAIRLAALMQLPVTYVFTHDSIAVGEDGPTHEPIEQLAALRAMPNVSVIRPADGNESVAAWRLALESTNKPTALVLTRQDLPTLEGAKDDTYEKVAKGAYVVSASKKETADVILLATGSEVSLAVEAQKALAVDGVDASVVSMPSMDRFEAQTAEYKESVLPKAVTKRFAIEMGATFGWHRYVGLEGDVLGIDTFGASAPGEKIMEEYGFTVENVVRKVKEML	not failed
MSHSLKDFLEACETLGTLRLIVTSSAAVLEARGKIEKLFYAELAKGKYANMHTEGFEFHLNMEKITQVKFETGEAKRGNFTTYAIRFLDEKQESALSLFLQWGKPGEYEPGQVEAWHTLKEKYGEVWEPLPVQL	not failed
MSHTKPSIAILGAGRVGSSLARSAVAAGYEVKVAGSGAVDKIALTAEILMPGAVPSTADQAVKDADIVFLAVPLHKFRSVNPATLEGKIVIDTMNHWVPVNGELEEIDQDPRSTSEIIAEFFAGSTMVKSFNHIGYHEIEQDAGTGRAIAYATDDVDAGAQVAQLIKSFGFVPLNIGALENGRILEPGQEAFGAHLNKDSRLELVNQR	failed
MSHVSYAEPPAQGWDIHCHTVFSDGTETPRTLVEQARKLGLHGVAIADHDTTAGWDEATEASEEIGLPLLLGTEITAVDEDVSVHMLAFQYDPSNEHISSMFANTRAARLRRTKRMVERLSQDFPITWDDVLAQVKEGERTTIGRPHIADALVAAGVYETRSDAFADAVSAKSKYYIPTPSPSTHEVIAAVKGAGGVVVAAHAGDPQRNRRLLSDEQLDAMIADGLDGLEVWHRGNPPEQRERLLTIAARHDLLVTGGSDWHGKGKPNGLGENLTDDDTVREILCRGVDLIGRVGSSHAA	not failed
MSIAIRIATIGALCAASAALSGCGSVGAASGALAGAATGLVTANPAVGVGVGIAVQAATDEAVNRTMKQLHQNQQDAIAKAAGSLAVGEVKPWKVKNTLPLENGEGEVRVTRAYSTALALCKEFAFSVKDGDKADWYFANACQQGTHWKWASAEPAVDRWGNLQ	failed
MSIDFYNQNASSFYASTVEVDSSSLLEQFTPYLPKGGSVLDAGCGSGRDSKRLIELGFHVDAFDASAALATLAQQLLGKPVRVATFMQFTSTLQYDGIWACASLLHVSKASLPDAFAHLASMLKSGGAFYCSFKYGQGEVERDGRSFTHCDEALLAELLTGSPLVIDKVWLTLEHHHHHH	failed
MSIEPVFILVRPQMGENIGAAARAMLNFGLGRLRIVDPRDGWPNPKAVAMASGAGRLLDHAGLFPTVAEAIRDCDYVFATTARGRELTKPVMTPERAMAHGRALTGEGRRVGILFGPERTGLENEDVALANAIVTVPVNPEFFSLNLAQCVLLLAYEWRRQHDETPPEVIDMARVDFASGLEVEKLGD	failed
MSIEVPISIPKTLIIIPAYNEEEAIADTLTRLLELKQHFTALSICVINDGSQDKTAQIVKNFPVHLINLPYNLGIGSAVQTGYKYAYENGYDIAIQFDADGQHNPDDLYKIIQPIAEGQCDMVLGSRFTEKTAYKGSISRRIGIFYFTALLKVLTKQTFMDPTSGYRAINREVITIFAHNYPKDYPEPEVLIHLKKKKLRINEISVNMQERQGGQSSITPLKSAYYMIKVSLAILMQKIVKGLEHHHHHH	failed
MSIGFYANDNFMGKSHIMDKSGKPHIGISKYPVIITQAKQQKLRKAINEARESNDILMVDFPRQMLITEHDDELVKSLGESLEEDLEYLGAIFYGKSKYVDSITGKFSLWRSNNVKVNLEHHHHHH	failed
MSIIEDNKISFVIPTINEEKTIGSVIDGIHENFPNAEIILVDTNSTDKTKEIAKSKGATVIEEPRKGYGRAYQTGIPAAKGDIIVCMDGDGTYPTDIVKPLIEILILDKVDFISCDRITFRTSTNYTTLHYVGNMVLNLTIRILFKVRMVDSQSGMWIFRSELYKKMKNLGYGMSFSQNIKIEAVRHGVFIEIPIRYGVRITKPKLKTWHDGFHNLFALFIKRVSELEHHHHHH	not failed
MSIQMATSNDLEWINNQYDSIGFVRSDLKRDKVAIITYNNEYAGIGRLVQIDEDTLEMGGILILPKFRGLQLAGELVSFLVETAKKLQVQHVYCLPFEELENFYKKYGYTEVDTTKEFVHPIILEKYNWCLDHYEKHVLLFKL	failed
MSIRIDRQRCIGCGKCAEICPGNLIVIDEDKKAFVRDPRDCWGCAACVKECKFSAIRYFLGAEIGGNGTTMYVEKENDEIMYWYFEKPSGEKEMIVQNLKDNTTYLEHHHHHH	failed
MSIRIKLFLAFLLTTFVVVMGMHFFTRWSLEKGFTEFIEKRQQERLDKIIDVLEEHYAEHRGWGELAGNKQHWISLLWHAGPHRHRPPKWIIEQAQHEPDRQWPPAVTPGTAERKWSPFELRVILLDADRSILFGRKELISQLSLHPVQYEHRTVGFLGLLPGNPVSQASDIYFMEQQADFFFWIALTMVVLSALIAWLMAYHLGRPLKQIAAVVQRLATGDYKARLPVISKDEMGQLALNFNDTAAALEQAEQSRRRWVADISHELRTPLAVLRGELEAILDGVHPLTPAAIESLSGDVLRLNRLTEDLYQLALSDQGALSYRKVLLDPVPLLREDLATFTTDFNHKQISVRWINRLFKPVLVNADPDRLSQLFRNLLTNSLNHTDARGQLEITVQRLADKLVIELADSSPGVSDQDIAHLFDRFYRVDHSRNRHLGGAGLGLAICSNIVRAHEGTLMASHSALGGLAIHIELPITP	failed
MSIRLAQVTDIPVLKELLNQIFQVHQTVRPDLFKNTDKGSKYSETELKELLQDESKPIFVYTDGKNRVLGHLFLVIKETKGSSVSKPLKTLFIDDLCVSKEARGQKIGQELFEFALKYAKKLGCYDLTLNVWNDNKGALAFYERQGLKARETKMEKILLEHHHHHH	not failed
MSIRLTNISKKFGQFQALSPLNLDIQEGEMIGLLGPSGSGKTTLLRIIAGLEGADSGHIHFGNRDVTQVHVRDRRVGFVFQNYALFRHMTVADNVAFGLEVIPKKQRPSAAEIQKRVSHLLEMVQLGHLAQRYPEQLSGGQKQRIALARALATQPEVLLLDEPFGALDAKVRKELRRWLRSLHDELKFTSVFVTHDQDEALELSDRVVVMSNGNIEQVNTPIELYAQPNSRFVFDFLGNVNRFEANWQQNRWTNGDAFIVPPEQTPLQQNGALYVRSHELALADKPNSQAHIPFTIVAITPIGAEVRVELAPIGWQSEELWEAKFTHHHLQELGLQKGSVVYATPRTGYFFGKQGDGSPIRQSWPFLPPGSLAFDI	failed
